# Results taken from US20230227577A1 (MYTHIC THERAPEUTICS, published 2023).
# B1: anti-human DLL3 BiTE (bispecific antibody)
# chain: QVQLQESGPGLVKPSETLSLTCTVSGGSISSYYWSWIRQPPGKGLEWIGYVYYSGTTNYNPSLKSRVTISVDTSKNQFSLKLSSVTAADTAVYYCASIAVTGFYFDYWGQGTLVTVSSGGGGSGGGGSGGGGSEIVLTQSPGTLSLSPGERVTLSCRASQRVNNNYLAWYQQRPGQAPRLLIYGASSRATGIPDRFSGSGSGTDFTLTISRLEPEDFAVYYCQQYDRSPLTFGGGTKLEIK
# notes: also called DLL3 BiTEs
# B2: 2HCE117 anti-DLL3 VHH (VHH)
# VHH: QVQLQESGGGLVQPGGSLRLSCAASGFTFSSYAMSWVRQAPGKGLEWVSDINSGGGSTYYADSVKGRFTISRDNAKNTLYLQMDSLKPEDTAVYYCATPFEIGSWGQGTQVTVSS
# notes: In the binning assay it was used as a periplasmic extract
# B3: 3HCE87 anti-DLL3 VHH (VHH)
# VHH: QVQLQESGGGLVQAGGSLRLSCAASGFIFDDYIIGWFRQAPGKEREFVAAISWSGSATAYADSVKGRFTISRDNAKNTLYLQMNTLKPEDTAVYYCAASSRGPYNSGSSYDYWGQGTQVTVSS
# notes: as for B2
# B4: 3HCE4 anti-DLL3 VHH (VHH)
# VHH: QVQLQESGGGLVQAGASLKLSCAVSGRAGSSYDMGWLRQAPGKEREFVAIITWSGNTAYKDSVKGRFIISRDNAKNTVYLEMNSLAPEDTAVYYCAAALSEKKYEYWGQGTQVTVSS
# notes: as for B2
# How the values were obtained:
# [1] = target: T1, DLL3 target antigen coated on Octet SA tips (binning experiment) (Homo sapiens (Human), UniProt Q9NYJ7 27-492, Probably biotinylated for capture on streptavidin (SA) tips. The site is not stated.); assay: Octet binning on DLL3-coated SA tips; competitor: 2HCE27
# T1 sequence: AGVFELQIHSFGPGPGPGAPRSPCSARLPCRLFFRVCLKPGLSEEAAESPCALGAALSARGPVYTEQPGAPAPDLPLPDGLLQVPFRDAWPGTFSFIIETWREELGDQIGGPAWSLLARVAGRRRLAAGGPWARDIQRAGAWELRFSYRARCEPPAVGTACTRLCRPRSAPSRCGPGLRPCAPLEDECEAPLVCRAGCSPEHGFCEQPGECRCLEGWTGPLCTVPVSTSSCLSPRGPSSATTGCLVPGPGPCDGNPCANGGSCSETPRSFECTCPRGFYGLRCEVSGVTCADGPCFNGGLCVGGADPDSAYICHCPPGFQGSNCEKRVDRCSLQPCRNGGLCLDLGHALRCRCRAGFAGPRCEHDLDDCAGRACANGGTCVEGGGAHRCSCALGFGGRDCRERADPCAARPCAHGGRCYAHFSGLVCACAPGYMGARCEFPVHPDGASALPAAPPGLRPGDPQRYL
# Procedure: (§1) Antibody binning experiments were carried out for 5 anti-DLL3 VHHs and an anti-human DLL3 BiTE (SEQ ID NO: 756). The target antigen was coated on a series of Octet SA tips. Each series of tips was first soaked in a periplasmic extract containing one specific VHH. After the response signals reached saturation, the tips were transferred to a mix of PEs containing again the first VHH (at the same concentration) plus a different VHH (termed secondary VHH) for each tip of the series. Secondary VHH that still bind the target antigen in the presence of the first VHH will show an increased response, as compared to the binding response of the first VHH alone. This was repeated for each VHH as primary VHH until all VHH were tested against each other in both directions (as primary and as secondary binder). From the response data, the bins were deduced for each VHH. 2HCE117 and 3HCE4 show competition with the human DLL3 BiTEs, whereas 3HCE56 and 3HCE87 show a partial competition.
# [2] = target: T1, DLL3 target antigen coated on Octet SA …; assay: Octet binning on DLL3-coated SA tips; competitor: DLL3 BiTEs
# Procedure: as §1
# [3] = target: T1, DLL3 target antigen coated on Octet SA …; assay: Octet binning on DLL3-coated SA tips; competitor: 3HCE56
# Procedure: as §1
# [4] = target: T1, DLL3 target antigen coated on Octet SA …; assay: Octet binning on DLL3-coated SA tips; competitor: 3HCE87
# Procedure: as §1
# [5] = target: T1, DLL3 target antigen coated on Octet SA …; assay: Octet binning on DLL3-coated SA tips; competitor: 2HCE117
# Procedure: as §1
# [6] = target: T1, DLL3 target antigen coated on Octet SA …; assay: Octet binning on DLL3-coated SA tips; competitor: 3HCE4
# Procedure: as §1
# mouse DLL3 on CHO cells = target: T2, mouse DLL3 on CHO cells (mouse, UniProt O88516 33-592); assay: flow cytometry (FACS) on CHO cells expressing mouse DLL3
# T2 construct: whole, on cells; also called CHO cells expressing mouse DLL3
# T2 sequence (looked up): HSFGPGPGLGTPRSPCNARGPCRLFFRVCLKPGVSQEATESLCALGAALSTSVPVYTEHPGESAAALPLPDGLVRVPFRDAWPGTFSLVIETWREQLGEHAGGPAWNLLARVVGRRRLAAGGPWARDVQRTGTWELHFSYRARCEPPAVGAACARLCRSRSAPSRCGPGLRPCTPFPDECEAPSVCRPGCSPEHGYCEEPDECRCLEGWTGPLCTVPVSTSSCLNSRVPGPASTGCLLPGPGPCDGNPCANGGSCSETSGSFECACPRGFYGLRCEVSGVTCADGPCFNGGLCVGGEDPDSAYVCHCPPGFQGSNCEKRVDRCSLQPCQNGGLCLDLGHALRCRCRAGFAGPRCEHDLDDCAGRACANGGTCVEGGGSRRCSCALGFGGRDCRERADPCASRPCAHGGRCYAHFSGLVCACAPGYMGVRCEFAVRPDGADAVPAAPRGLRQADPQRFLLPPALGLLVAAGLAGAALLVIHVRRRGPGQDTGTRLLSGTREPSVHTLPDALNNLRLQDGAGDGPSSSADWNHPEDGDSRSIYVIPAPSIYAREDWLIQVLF
# Procedure: (§2) Additional experiments were carried out to further characterize the binding properties of the anti-DLL3 constructs. Binding properties tested include dissociation constant (KD), off-rate (koff), binding to DLL3 protein by ELISA and binding to CHO cells expressing human, cyno or mouse DLL3. To obtain off-rate (koff), human biotinylated DLL3 was immobilized on Octet SA tips, and cynomolgus or mouse DLL3 was immobilized on Octet AR2G tips. For each DLL3 protein, the binding to a dilution series of each anti-DLL3 construct was measured using Fortebio Octet Red. The dissociation constant (KD), off-rate (koff) and other kinetic parameters for each anti-DLL3 construct were calculated using a 1:1 binding model. In addition, binding of these anti-DLL3 constructs to CHO cells expressing human, cyno or mouse DLL3 protein was analyzed using flow cytometry (FACS).
# DLL3 (ELISA DLL3) = target: T3, DLL3 (ELISA DLL3); assay: ELISA, ratio of the signal on DLL3 to the signal on the control
# T3 construct: also called DLL3 protein in ELISA
# T3 chain: T1 sequence
# [7] = target: T4, recombinant human DLL3 protein (human, UniProt Q9NYJ7 27-492, limits assumed); assay: Fortebio Octet Red, DLL3 immobilised on tips, dilution series of the VHH, 1:1 binding model; kon error 7.26E+01; Full R2 0.9111
# T4 construct: also called rhu DLL3; human biotinylated DLL3
# T4 sequence (looked up): T1 sequence
# Procedure: as §2
# [8] = target: T4, recombinant human DLL3 protein; assay: Fortebio Octet Red, DLL3 immobilised on tips, dilution series of the VHH, 1:1 binding model; koff error 2.95E-06; Full R2 0.9111
# Procedure: as §2
# [9] = target: T4, recombinant human DLL3 protein; assay: Fortebio Octet Red, DLL3 immobilised on tips, dilution series of the VHH, 1:1 binding model; KD error 1.32E-09; Full R2 0.9111
# Procedure: as §2
# mouse DLL3 protein = target: T5, mouse DLL3 protein (mouse, UniProt O88516 33-490, limits assumed); assay: Octet (DLL3 on AR2G tips), ELISA and FACS; values only in FIG. 3
# T5 construct: also called murine DLL3
# T5 sequence (looked up): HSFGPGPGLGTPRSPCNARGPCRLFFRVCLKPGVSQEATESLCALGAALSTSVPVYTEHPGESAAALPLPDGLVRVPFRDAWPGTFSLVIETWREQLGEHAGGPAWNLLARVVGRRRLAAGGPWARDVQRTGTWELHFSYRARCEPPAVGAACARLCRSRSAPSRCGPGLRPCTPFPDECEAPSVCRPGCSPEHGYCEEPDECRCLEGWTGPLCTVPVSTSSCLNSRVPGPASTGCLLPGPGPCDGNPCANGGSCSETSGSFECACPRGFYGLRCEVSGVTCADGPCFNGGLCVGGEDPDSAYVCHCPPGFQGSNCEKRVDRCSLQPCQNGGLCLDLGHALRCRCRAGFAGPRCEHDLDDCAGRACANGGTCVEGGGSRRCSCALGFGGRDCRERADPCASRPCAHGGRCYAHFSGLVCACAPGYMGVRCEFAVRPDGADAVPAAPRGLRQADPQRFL
# [10] = target: T4, recombinant human DLL3 protein; assay: Fortebio Octet Red, DLL3 immobilised on tips, dilution series of the VHH, 1:1 binding model; koff error 5.76E-06; Full R2 0.9522
# Procedure: as §2
# [11] = target: T4, recombinant human DLL3 protein; assay: Fortebio Octet Red, DLL3 immobilised on tips, dilution series of the VHH, 1:1 binding model; kon error 2.27E+03; Full R2 0.9522
# Procedure: as §2
# [12] = target: T4, recombinant human DLL3 protein; assay: Fortebio Octet Red, DLL3 immobilised on tips, dilution series of the VHH, 1:1 binding model; KD error 7.00E-11; Full R2 0.9522
# Procedure: as §2
# [13] = target: T4, recombinant human DLL3 protein; assay: Fortebio Octet Red, DLL3 immobilised on tips, dilution series of the VHH, 1:1 binding model; koff error 2.13E-06; Full R2 0.9955
# Procedure: as §2
# [14] = target: T4, recombinant human DLL3 protein; assay: Fortebio Octet Red, DLL3 immobilised on tips, dilution series of the VHH, 1:1 binding model; kon error 9.86E+02; Full R2 0.9955
# Procedure: as §2
# [15] = target: T4, recombinant human DLL3 protein; assay: Fortebio Octet Red, DLL3 immobilised on tips, dilution series of the VHH, 1:1 binding model; KD error 2.22E-11; Full R2 0.9955
# Procedure: as §2
Binder,binning response (unit not given) [1],binning response (unit not given) [2],binning response (unit not given) [3],binning response (unit not given) [4],binning response (unit not given) [5],binning response (unit not given) [6],binding result (mouse DLL3 on CHO cells),DLL3 / control (DLL3 (ELISA DLL3)),kon [7],koff [8],Kd [9],binding result (mouse DLL3 protein),koff [10],kon [11],Kd [12],koff [13],kon [14],Kd [15]
B1,82.5,0,1500,125,1280,121,–,–,–,–,–,–,–,–,–,–,–,–
B2,-73,-23.2,-207,-98.7,0,-90.1,binds,29.4,5960 M⁻¹ s⁻¹,0.0006 s⁻¹,101 nM,binds,–,–,–,–,–,–
B3,-48.2,68.3,204,0,1210,-54.4,binds,18.8,–,–,–,binds,0.00103 s⁻¹,192000 M⁻¹ s⁻¹,5.35 nM,–,–,–
B4,347,9.03,407,120,3510,0,binds,65.7,–,–,–,binds,–,–,–,0.00128 s⁻¹,249000 M⁻¹ s⁻¹,5.15 nM
